Data taken from patent US20220064300A1.

How the values were obtained:
[1] = molecular target: Murine FcγRIIB extracellular domain (mouse) (UniProt P08101); assay: SPR, dissociation constant from binding at equilibrium on immobilized murine FcγRIIB extracellular domain, 37 °C
[2] = molecular target: Murine FcγRIIB extracellular domain (mouse) (UniProt P08101); assay: SPR, binding at equilibrium, antibody injected at 37 °C over murine FcγRIIB extracellular domain amine-coupled to a CM5 chip, reference channel mouse CD200

Sequence of UniProt P08101 (P08101 30-210): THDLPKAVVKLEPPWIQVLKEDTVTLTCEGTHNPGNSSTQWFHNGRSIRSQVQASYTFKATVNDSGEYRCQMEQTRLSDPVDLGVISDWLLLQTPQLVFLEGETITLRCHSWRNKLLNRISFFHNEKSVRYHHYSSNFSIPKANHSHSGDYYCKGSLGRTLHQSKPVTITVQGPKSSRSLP

## JJ316+50 (JJ316 extended in the hinge with a 50 amino acid insertion from murine CD43) (antibody)
[1]
  Kd: 1.07 µM
[2]
  Kd: 1.07 µM

## chimeric Nivolumab in an extended form containing the 50-residue extension (antibody)
[1]
  Kd: 8.51 µM
[2]
  Kd: 8.51 µM

## JJ316 (anti-rat CD28 antibody, superagonistic; BD Biosciences cat #554992)
[1]
  Kd: 3.02 µM
[2]
  Kd: 3.02 µM
